Measured values reported in patent US20180327493A1.

Biological target: human CD84 on cells (primary CLL cells, Ramos cells, Daudi cells) (human), Q9UIB8
Experiment: cell-based or functional assay

Chain of human CD84 on cells (primary CLL cells, Ramos cells, Daudi cells) (human), Q9UIB8 (Q9UIB8 22-345): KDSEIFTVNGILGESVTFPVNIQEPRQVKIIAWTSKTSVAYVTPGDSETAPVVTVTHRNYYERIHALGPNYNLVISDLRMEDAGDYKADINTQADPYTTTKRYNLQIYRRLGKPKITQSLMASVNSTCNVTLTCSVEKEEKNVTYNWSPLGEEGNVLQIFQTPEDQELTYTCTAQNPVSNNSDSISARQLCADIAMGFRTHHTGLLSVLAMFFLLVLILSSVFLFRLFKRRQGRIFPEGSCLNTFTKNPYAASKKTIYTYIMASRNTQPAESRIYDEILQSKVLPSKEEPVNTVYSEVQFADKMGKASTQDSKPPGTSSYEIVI

Binder | % apoptosis, Ramos cells (Magic Red, FACS) | % apoptosis, purified CLL cells (Magic Red, FACS) | annexin positive total population of CLL cells (Annexin 7AAD staining)
anti-CD84 antibody from the B1 hybridoma (antibody) heavy: EVKLVESGGGLVQPGGSRKLSCAASGFTFSSFGMHWVRQAPEKGLEWVAYISSGSSTIYYADTVKGRFTISRDNPKNTLFLQMTSLRSEDTAMYYCARWGWTGTGLDYWGQGTTLTVSSFEAKTTPPSVYPLAPGSAAQTNSMVTLGCLVKGYFPEPVTVTWNSGSLSSGVHTFPAVLQSDLYTLSSSVTVPSSTWPSETVTCNVAHPASSTKVDKKIVPRDCGCKPCICTVPEVSSVFIFPPKPKDVLTITLTPKVTCVVVDISKDDPEVQFSWFVDDVEVHTAQTQPREEQFNSTFRSVSELPIMHQDWLNGKEFKCRVNSAAFPAPIEKTISKTKGRPKAPQVYTIPPPKEQMAKDKVSLTCMITDFFPEDITVEWQWNGQPAENYKNTQPIMDTDGSYFVYSKLNVQKSNWEAGNTFTCSVLHEGLHNHHTEKSLSHSPGK light: DIVLTQSPALMAASPGEKVTITCSVSSSISSSNLHWYQQKSETSPKPWIYGTSNLASGVPVRFSGSGSGTSYSLTISSMEAEDAATYYCQQWSSYPFTFGSGTKLEIKRRTRADAAPTVSIFPPSSEQLTSGGASVVCFLNNFYPKDINVKWKIDGSERQNGVLNSWTDQDSKDSTYSMSSTLTLTKDEYERHNSYTCEATHKTSTSPIVKSFNRNEC | 45 % apoptosis | 73 % apoptosis | –
anti-CD84 antibody from the B4 hybridoma (antibody) heavy: EVKLVESGAELARPGASVKLSCKASGYTFTSYWMQWVKQRPGQGLEWIGAIYPGDGDTRYTQKFKGKATLTADKSSSTAYMQLSSLASEDSAVYYCARLLRTYWYFDVWGAGTTVTVSSFEAKTTAPSVYPLAPVCGDTTGSSVTLGCLVKGYFPEPVTLTWNSGSLSSGVHTFPAVLQSDLYTLSSSVTVTSSTWPSQSITCNVAHPASSTKVDKKIEPRGPTIKPCPPCKCPAPNLLGGPSVFIFPPKIKDVLMISLSPIVTCVVVDVSEDDPDVQISWFVNNVEVHTAQTQTHREDYNSTLRVVSALPIQHQDWMSGKEFKCKVNNKDLPAPIERTISKPKGSVRAPQVYVLPPPEEEMTKKQVTLTCMVTDFMPEDIYVEWTNNGKTELNYKNTEPVLDSDGSYFMYSKLRVEKKNWVERNSYSCSVVHEGLHNHHTTKSFSRTPGK light: DIVLTQSHKFMSTSVGDRVSITCKASQDVGTAVAWYQQKPGQSPKLLIYWASTRHTGVPDRFTGSGSGTDFTLTISNVQSEDLADYFCQQYSSYPYTFGGGTKLELKRRTRADAAPTVSIFPPSSEQLTSGGASVVCFLNNFYPKDINVKWKIDGSERQNGVLNSWTDQDSKDSTYSMSSTLTLTKDEYERHNSYTCEATHKTSTSPIVKSFNRNEC | 39 % apoptosis | 75 % apoptosis | 55.8%
